Earlier results as cited in patent publication US7276335B1, “Designing compounds specifically inhibiting ribonucleic acid function” (Massachusetts Institute of Technology, priority 1993, dated 2007).

Key:
eukaryotic 28 S rRNA = settings: cleaves one phosphodiester bond on the 3′ side of G-4325
[1] = test system: normal cells as well as tumor cells; settings: too toxic for use clinically to treat tumors

B1: α-sarcin: cytotoxic protein with potent antisarcoma activity, isolated from a mold, that inactivates ribosomes by cleaving the rRNA (protein, UniProt P00655 28-177, looked up)
Ribonuclease alpha-sarcin: AVTWTCLNDQKNPKTNKYETKRLLYNQNKAESNSHHAPLSDGKTGSSYPHWFTNGYDGDGKLPKGRTPIKFGKSDCDRPPKHSKDGNGKTDHYLLEFPTFPDGHDYKFDSKKPKENPGPARVIYTYPNKVFCGIIAHTKENQGELKLCSH
sarcoma
  antisarcoma activity: potent antisarcoma activity
Eukaryotic 28 S rRNA
  inactivation of ribosomes by rRNA cleavage: inactivates ribosomes by cleaving the rRNA
[1]
  toxicity to cells: highly toxic to normal cells as well as tumor cells
